One data set has as its target T1, vGalDH (synthetic construct, UniProt Z9D058OTD2).
T1 construct: SUMO cleaved for crystals; noncovalent FAD
T1 sequence (Z9D058OTD2 110-619): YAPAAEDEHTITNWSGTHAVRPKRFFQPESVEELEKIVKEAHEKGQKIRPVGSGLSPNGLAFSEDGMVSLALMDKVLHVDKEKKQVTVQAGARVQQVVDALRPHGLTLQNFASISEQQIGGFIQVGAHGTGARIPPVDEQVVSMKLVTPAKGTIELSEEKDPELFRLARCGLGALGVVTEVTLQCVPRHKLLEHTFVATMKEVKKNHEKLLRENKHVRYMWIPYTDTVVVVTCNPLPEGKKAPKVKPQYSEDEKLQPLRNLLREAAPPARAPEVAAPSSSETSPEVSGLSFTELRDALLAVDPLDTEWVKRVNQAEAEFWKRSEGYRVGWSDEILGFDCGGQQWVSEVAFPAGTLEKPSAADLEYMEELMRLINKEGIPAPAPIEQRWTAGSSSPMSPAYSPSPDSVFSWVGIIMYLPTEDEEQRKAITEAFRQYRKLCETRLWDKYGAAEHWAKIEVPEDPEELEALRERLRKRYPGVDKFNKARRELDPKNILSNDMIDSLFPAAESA
Put plainly: cytochrome c reduction at […] nm, Michaelis-Menten fit. It counts as biochemical. The note with it: 50 μM equine cytochrome c, 50 mM potassium phosphate pH 8, 25 °C.

Substrate in data set [1]: O=C1O[C@H]([C@@H](O)CO)[C@@H](O)[C@@H]1O
Put plainly: oxygen consumption (Oxygraph), Michaelis-Menten fit. It counts as biochemical, synthetic construct. The note with it: oxygen as co-substrate, 50 mM potassium phosphate pH 8, 25 °C. The source says: (§1) oxygen consumption (Oxygraph), Michaelis-Menten fit on cGULO

Substrate in data set [2]: O=C1O[C@H]([C@@H](O)CO)[C@H](O)[C@@H]1O
The description is as above. It counts as biochemical, synthetic construct. The note with it: oxygen as co-substrate, 50 mM potassium phosphate pH 8, 25 °C.
From the text: as §1

Substrate in data set [3]: O=C1O[C@H](CO)[C@@H](O)[C@@H]1O
The data set is described as above. The note with it: oxygen as co-substrate, 50 mM potassium phosphate pH 8, 25 °C. It counts as biochemical, synthetic construct.
From the text: as §1

Substrate in data set [4]: O=C1O[C@H]([C@@H](O)CO)[C@@H](O)[C@@H]1O
Described as above. It counts as biochemical, synthetic construct. The note with it: oxygen as co-substrate, 50 mM potassium phosphate pH 8, 25 °C. This is another data set of the same source.

Substrate in data set [5]: O=C1O[C@H]([C@@H](O)CO)[C@H](O)[C@@H]1O
The data set is described as above. It counts as biochemical, synthetic construct. The note with it: oxygen as co-substrate, 50 mM potassium phosphate pH 8, 25 °C. This is another data set of the same source.

Substrate in data set [6]: O=C1O[C@H](CO)[C@@H](O)[C@@H]1O
The description is as above. The note with it: oxygen as co-substrate, 50 mM potassium phosphate pH 8, 25 °C. It is filed as biochemical, synthetic construct. This is another data set of the same source.

Substrate in data set [7]: O=C1O[C@H]([C@@H](O)CO)[C@@H](O)[C@@H]1O
Described as above. It is filed as biochemical, synthetic construct. The note with it: oxygen as co-substrate, 50 mM potassium phosphate pH 8, 25 °C. The source says: (§2) oxygen consumption (Oxygraph), Michaelis-Menten fit on mGULO
The source holds these as a separate data set.

Substrate in data set [8]: O=C1O[C@H]([C@@H](O)CO)[C@H](O)[C@@H]1O
The description is as above. The note with it: oxygen as co-substrate, 50 mM potassium phosphate pH 8, 25 °C. It counts as biochemical, synthetic construct.
From the text: as §2
The source holds these as a separate data set.

Substrate in data set [9]: O=C1O[C@H](CO)[C@@H](O)[C@@H]1O
The description is as above. It counts as biochemical, synthetic construct. The note with it: oxygen as co-substrate, 50 mM potassium phosphate pH 8, 25 °C.
From the text: as §2
The source holds these as a separate data set.

Substrate in data set [10]: O=C1O[C@H]([C@@H](O)CO)[C@@H](O)[C@@H]1O
The data set is described as above. It counts as biochemical, synthetic construct. The note with it: oxygen as co-substrate, 50 mM potassium phosphate pH 8, 25 °C. Here is the method:
(§3) oxygen consumption (Oxygraph), Michaelis-Menten fit on tGULO | KM values in the sub-millimolar range were measured for mGULO and tGULO | also L-galactono-1,4-lactone (i.e.: GalDH substrate; Fig. 1A) and D-arabino-1,4-lactone (ALO substrate) are effectively oxidized
This is another data set of the same source.

Substrate in data set [11]: O=C1O[C@H]([C@@H](O)CO)[C@H](O)[C@@H]1O
The data set is described as above. It counts as biochemical, synthetic construct. The note with it: oxygen as co-substrate, 50 mM potassium phosphate pH 8, 25 °C. On the procedure:
as §3
This is another data set of the same source.

Substrate in data set [12]: O=C1O[C@H](CO)[C@@H](O)[C@@H]1O
Described as above. It is filed as biochemical, synthetic construct. The note with it: oxygen as co-substrate, 50 mM potassium phosphate pH 8, 25 °C. On the procedure:
as §3
This is another data set of the same source.

`O=C1O[C@H](CO)[C@@H](O)[C@@H]1O` [D-arabino-1,4-lactone]: the Km on vGalDH turned out to be 1100 ± 100 µM.

As for `O=C1O[C@H]([C@@H](O)CO)[C@H](O)[C@@H]1O` [L-gulono-1,4-lactone], the Km on vGalDH was 2100 ± 300 µM.

As for `O=C1O[C@H]([C@@H](O)CO)[C@@H](O)[C@@H]1O` [L-galactono-1,4-lactone], the Km on vGalDH came out at 16.6 ± 2.6 µM.

B1: cGULO (synthetic construct) (protein)
chain: MATGMKGYKFTNWAKTYSCQPELYFEPTTTEEIRQILELARQHSKRVKVVGCGHSPSDIACTTDYMISMKKFNKVLEVDKEKCQVTVQAGILLKDLNEELPKHGMALSNLGAVSDITVAGVISTGTHGTGVNYGILATHVVELTLMTASGEILKCSREENKDIFLAALCGLGALGIILTVTIQCEPAFKLHQKQFPCTLDEVLDNLDTHLKSSEHFRFMWFPHTDHVVVFHANRTDKPVQSTSSWFWDYLVGYYLLEFLLWISTFFPSLVPWINRFFFWLLYSQPKERVDRSDKVFNFECLFKQYVTEWAIPREKTAAVLLELKDWLESNPDFHAHFPVEVRFVRADDIYLSPCYQRDSCYINIIMYRPYGKDVPREKYWAAYEDIMMKVGGRPHWAKAHKVTAKDFQKMYPKFEKFCSIREKLDPQGMFLNSYLERVFF
notes: His-SUMO fusion from pBAD in E. coli; membrane-associated, purified in reduced Triton X-100; covalent FAD
In the case of B1, in data set [1], the Km stood at 11800 ± 1200 µM, the kcat came out at 3.5 ± 0.3 s⁻¹ and the kcat/Km worked out at 300 M⁻¹ s⁻¹. In [2], the Km is 6100 ± 700 µM, the kcat turned out to be 3.2 ± 0.1 s⁻¹ and the kcat/Km is 520 M⁻¹ s⁻¹. Also, in data set [3], the Km amounted to 48600 ± 24000 µM, the kcat was 0.6 ± 0.1 s⁻¹ and the kcat/Km was 12.3 M⁻¹ s⁻¹.

B2: jGULO (synthetic construct) (protein)
chain: MVQGTEGYKFQNWAQTYSCQPELYFEPTSVEEIRQILELARQRSKRVKVVGCGHSPSDIACTDDYMIRMNKMNKILKVDKEKRQVTVEAGILLSDLNEELAKHGLALSNLGAVSDVTVAGVIGTGTHNTGIQHGILATQVVALTLMTASGEILECSESVNKEIFQAARLHLGALGVILTVTFQCEPAFRLHQQQFPSTLTEVLDNLDTHLKKSEYFRFLWFPHTDHVTVFYADRTDKPVQSTSSWFWDYAIGYYLLEFLLWISTFFPRLVPWINRFFFWLLYSAKVERVNRSDKVFNFECLFKQHVSDWAIPIEKTKAALLQLKEWLENNPDVRAHFPVEVRFVRADDILLSPCYQRDSCYINIIMYRPYGKDVPRERYWAAYEDIMKKVGGRPHWAKAHSCTRKDFEKMYPAFQKFCSIREKLDPSGMFLNTYLEKVFF
notes: as for B1
As for B2, the Km in data set [4] turned out to be 7100 ± 800 µM; in [5], 6900 ± 600 µM; in [6], 10700 ± 2500 µM. In addition, the kcat in [4] turned out to be 8.0 ± 0.3 s⁻¹; in data set [5] it was 3.9 ± 1.3 s⁻¹; in data set [6], 2.9 ± 0.3 s⁻¹.

B3: mGULO (synthetic construct) (protein)
chain: MVHGHKGVKFQNWAKTYGCSPEMYFQPTSVEEIREVLDLARQQNKRVKVVGGGHSPSDIACTDGFMIHMGKMNRILKVDKEKKQVTVEAGILLADLNVELSKHGLALSNLGAVSDVTAAGVIGTGTHNTGIKHGILATQVVALTLLTASGTILECSESSNAELFQAARVHLGCLGVILTVTFQCVPQFHLQETSFPSTLKEVLDNLDSHLKKSEYFRFLWFPHSENVSVIYQDHTNKPPSSSANWFWDYAIGFYLLEFLLWISTFLPCLVPWINRFFFWLLFTGKVENSNLSYKIFNYECRFKQHVQDWAIPIEKTKEALLELKAMLESNPKVVAHYPVEVRFTRGDDILLSPCFQRDSCYMNIIMYRPYGKDVPRLDYWLAYETIMKKVGGRPHWAKAHTCTRKDFEKMYPAFQKFCAIREKLDPTGMFLNAYLEKVFY
notes: His-SUMO fusion from pBAD in E. coli (tag kept in stopped-flow); membrane-associated, purified in reduced Triton X-100; covalent FAD
Consider B3, for which, in [7], the Km was 1900 ± 200 µM, the kcat is 4.2 ± 0.1 s⁻¹ and the kcat/Km came out at 2200 M⁻¹ s⁻¹. Also, in data set [8], the Km was 800 ± 100 µM, the kcat came to 6.1 ± 0.1 s⁻¹ and the kcat/Km stood at 7600 M⁻¹ s⁻¹. For the same molecule, in [9], the Km was found to be 3300 ± 400 µM, the turnover number (kcat) was determined as 0.5 ± 0.1 s⁻¹ and the kcat/Km worked out at 150 M⁻¹ s⁻¹.

B4: tGULO (synthetic construct) (protein)
chain: MVQGHGGYKFQNWAQTYGCSPELYFQPTSVEEIKEILDLARQRSKRVKVVGGGHSPSDIACTDDFMIHMNKMNKILKVDKEKKQVTVEAGILLSDLNEELSKHGLALSNLGAVSDVAAAGVIGTGTHNTGIQHGILATQVVALTLMTASGEILECSESVNAELFQAARLHLGCLGVILTVTFQCVPAFHLQETQFPSTLKEVLDNLDSHLKKSEYFRFLWFPHTENVSVIYQDRTDKPPSSSANWFWDYAIGYYLLEFLLWISTFLPRLVPWINRFFFWLLYSGKVERVNLSYKVFNYECRFKQHVQDWAIPIEKTKEALLELKAWLESNPKVVAHFPVEVRFARGDDILLSPCYQRDSCYMNIIMYRPYGKDVPRQQYWLAYENIMKKVGGRPHWAKAHTCTRKDFEKMYPGFQKFCSIREKLDPTGMFLNTYLEKVFY
notes: as for B1
In the case of B4, the Km in [10] turned out to be 5400 ± 1200 µM; in [11], 800 ± 200 µM; in [12], 9400 ± 900 µM. In addition, the kcat in data set [10] was found to be 1.3 ± 0.1 s⁻¹; in [11], 7.3 ± 0.5 s⁻¹; in [12] it was 2.9 ± 0.1 s⁻¹.

The record behind these values is publication PMC11099136, “Structure, mechanism, and evolution of the last step in vitamin C biosynthesis” (Nature Communications, 2024).
